The values that follow come from PMC4705524.

One may read the stoichiometry N as the number of molecules, sites or subunits per partner or assembly.

Test [1] concerns the target Pfs25-IMX313 (HEK293 cells, pENTR4-LPTOS shuttle plasmid) (Plasmodium falciparum | chicken) (UniProt P13829). Kind of test: non-reducing SDS-PAGE with western blot; 15 μL supernatant of transfected HEK293 cells per lane, reduced and non-reduced conditions, detected with anti-Pfs25 mAb 4B7. On the technique in general: A western blot detects proteins with antibodies after separation by electrophoresis.

Test [2] concerns the target Pfs25-IMX313 protein-nanoparticle (P. pastoris) (Plasmodium falciparum | chicken) (UniProt P13829). Briefly: non-reducing SDS-PAGE with western blot; protein purified from P. pastoris supernatant, 500 ng per lane, reduced and non-reduced conditions, detected with anti-Pfs25 mAb 4B7.

Substance “Pfs25-IMX313 (HEK293 cells, pENTR4-LPTOS shuttle plasmid) (from UniProt P13829 22-193)” came in with a stoichiometry N in test [1] of 7.
“Pfs25-IMX313 protein-nanoparticle (P. pastoris) (from UniProt P13829 22-193)” came in with a stoichiometry N in test [2] of 7.
